Source: patent publication US20260234211A1 (GUANGDONG RAYNOVENT BIOTECH, published 2026)
Bridge positions count the residues as written; N and C are the ends. Square brackets hold non-standard residues; d marks the D form. Ends that are not written are not given here. Aib = CC(C)(N)C(=O)O

Key:
Test in all cases: cell-based or functional assay
[1] = molecular target: GLP-1 receptor (GLP-1R)
[2] = molecular target: T1, GIP receptor (GIPR)
T1 sequence (P48546 whole entry, species assumed, looked up): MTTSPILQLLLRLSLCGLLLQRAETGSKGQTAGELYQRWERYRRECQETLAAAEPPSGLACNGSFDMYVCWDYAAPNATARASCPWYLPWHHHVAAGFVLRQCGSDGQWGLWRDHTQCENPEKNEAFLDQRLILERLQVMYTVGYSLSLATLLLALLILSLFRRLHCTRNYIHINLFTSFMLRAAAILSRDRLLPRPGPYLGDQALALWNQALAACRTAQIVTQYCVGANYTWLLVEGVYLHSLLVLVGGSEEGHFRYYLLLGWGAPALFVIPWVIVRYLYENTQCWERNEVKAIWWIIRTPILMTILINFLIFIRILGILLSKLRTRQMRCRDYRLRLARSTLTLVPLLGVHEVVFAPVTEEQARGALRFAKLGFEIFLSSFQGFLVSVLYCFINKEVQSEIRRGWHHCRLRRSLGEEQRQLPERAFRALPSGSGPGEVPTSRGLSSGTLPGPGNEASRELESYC

[3] = molecular target: GCG receptor (GCGR)

B1: Example 4 (peptide)
peptide: H[Aib]HGTFTSDYSIYLEKKYA[Aib]EFVKWLLKGGPSSGAPPPS-NH2
modifications: bridge 24-28; not fully specified (residues 24, 28, bridges); also: staple structure only in drawing
GLP-1 EC50 (nM), cAMP assay on HEK293 cells with GLP-1R [1]: 0.023 nM
GIP-1 EC50 (nM), cAMP assay on CHO cells with GIPR [2]: 0.016 nM
GCG EC50 (nM), cAMP assay on HEK293 cells with GCGR [3]: 0.143 nM

B2: Example 5 (peptide)
peptide: H[Aib]HGTFTSDYSIYLEKKYA[Aib]KFVQWLLEGGPSSGAPPPS-NH2
modifications: bridge 17-21; not fully specified (residues 17, 21, bridges); also: staple structure only in drawing
GLP-1 EC50 (nM), cAMP assay on HEK293 cells with GLP-1R [1]: 0.029 nM
GIP-1 EC50 (nM), cAMP assay on CHO cells with GIPR [2]: 0.007 nM
GCG EC50 (nM), cAMP assay on HEK293 cells with GCGR [3]: 0.012 nM
